Source: US20130123472A1 (GlaxoSmithKline, published 2013)
Where no end group is shown, it is not given here.

Key:
[1] = target: T1, peptide MA3#2 conjugated to KLH (human, also: conjugated to KLH); assay: ELISA, hybridoma supernatant on 0.5 µg/well peptide-KLH
T1 construct: MAGE-A3 residues 163-180 with an added N-terminal residue; by an error of synthesis it lacks the Ile of position 177; also called MAGE-A3 peptide #2; peptide #2
T1 peptide: CGIELMEVDPIGHLYFAT

[2] = target: T2, MAGE-A2 recombinant protein (LVL313) (human, UniProt P43356 1-314); assay: ELISA, clone culture supernatant on coated antigen, GAM IgG-HRP, OD 405 nm
T2 construct: Purified full-length recombinant protein in ELISA and Western blot; the same id is used for MAGE-A2 in lysates of transfected HEK 293 cells; also called recMA2
Procedure: (§1) Wells of a Nunc MAXISORP™ 96-well were coated with antigen. The antigen was diluted in Tris-buffered saline (TBS) at 0.1 μg/50 μl for purified recombinant MAGE proteins, or at 0.5 μg/50 μl for peptides conjugated to KLH, and distributed at 50 μl per well and dried overnight at 37° C. The wells were washed several times in TBS and 50 μl of TBS-1% casein was added to each well. Wells were incubated for 1 hour at 37° C. and washed again several times in TBS.
(§2) In total, 75 clones from Example 5 that grew easily after transfer into 24-well plates were tested two days later in ELISA for reactivity with the following antigens: recombinant MAGE-A3, recombinant MAGE-A2; recombinant MAGE-A12; peptide MA3 #1 conjugated to KLH; peptide MA3 #2 conjugated to KLH; and peptide MA3#3 conjugated to KLH.
(§3) For each clone, 50 μl of culture medium supernatant was transferred into a well of a 96-well plate containing 0.1 μg/well of one of the recombinant MAGE proteins or 0.5 μg/well of one of the peptides conjugated to KLH. As positive control, 50 μl of 57B hybridoma supernatant was tested on each of the antigens.

[3] = target: T3, peptide MA3#3 conjugated to KLH (human, conjugated to keyhole limpet haemocyanin (KLH)); assay: as above
T3 construct: MAGE-A3 residues 73-90 with two added residues at the N-terminus for linkage to the carrier; also called MAGE-A3 peptide #3; peptide #3
T3 peptide: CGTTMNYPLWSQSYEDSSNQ
Procedure: as §1, §2, §3

[4] = target: T4, peptide MA3#1 conjugated to KLH (human, also: conjugated to KLH); assay: as above
T4 construct: MAGE-A3 residues 137-147 with added residue(s) at the N-terminus for linkage to the carrier; also called MAGE-A3 peptide #1; peptide #1
T4 peptide: CGSVVGNWQYFF
Procedure: as §1, §2, §3

[5] = target: T5, MAGE-A12 recombinant protein (LVL314) (human, UniProt P43365 1-314); assay: as above
T5 construct: Purified full-length recombinant protein in ELISA and Western blot; the same id is used for MAGE-A12 in lysates of transfected HEK 293 cells; also called recMA12
Procedure: as §1, §2, §3

MAGE-A9 = target: T6, MAGE-A9 (human, UniProt P43362 1-315); assay: Western blot, lysates of transiently transfected HEK 293 cells
T6 construct: constructs not described
T6 sequence: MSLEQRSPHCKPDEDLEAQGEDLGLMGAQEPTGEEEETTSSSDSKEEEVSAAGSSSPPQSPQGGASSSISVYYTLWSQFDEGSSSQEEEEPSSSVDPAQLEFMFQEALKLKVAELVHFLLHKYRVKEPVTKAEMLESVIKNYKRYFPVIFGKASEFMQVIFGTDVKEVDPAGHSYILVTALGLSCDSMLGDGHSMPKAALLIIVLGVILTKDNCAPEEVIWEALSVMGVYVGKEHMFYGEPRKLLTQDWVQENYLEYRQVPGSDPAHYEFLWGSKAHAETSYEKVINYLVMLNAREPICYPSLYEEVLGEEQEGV
Procedure: (§4) The specificity of mAbs 1B1, 16G7 and 23D2 were tested in Western blot analyses on HEK 293 cells transiently transfected with plasmids encoding MAGE-A1, A2, A3, A4, A6, A8, A9, A10, All and A12. Non-transfected cells were used as a control. Between 25 and 85 μg of lysates of transfected or non-transfected cells were electrophoresed on SDS-PAGE and transferred onto nitrocellulose. Immunodetection was performed by incubation of the blots with each of mAbs 1B1, 16G7 and 23D2. Immunodetection was additionally performed using a mixture of mAbs that together recognized all of the MAGE-A antigens expressed by the transfectants (see Table 6 for mAbs in this mixture).
(§5) Method: mini-gels were prepared with 10% acrylamide in the running gel and 4.5% acrylamide in the stacking gel. Samples were prepared in 40 μl of loading buffer (reducing conditions), the gel was loaded and migrated at 100V in the stacking gel and 200 V in the running gel. Proteins were transferred onto nitrocellulose at 100 mA during one hour at 4° C., and the membrane incubated in TBS-5% skimmed milk, and incubated with antibody diluted in TBS-1% skim milk for one hour at room temperature.

MAGE-A6 = target: T7, MAGE-A6 (human, UniProt P43360 1-314); assay: as above
T7 construct: In lysates of transiently transfected HEK 293 cells (Western blot); also endogenous MAGE-A6 in K562 lysate; Construct not described
Procedure: as §4, §5

MAGE-A11 = target: T8, MAGE-A11 (human, UniProt P43364 1-429); assay: as above
T8 construct: In lysates of transiently transfected HEK 293 cells; construct not described
T8 sequence: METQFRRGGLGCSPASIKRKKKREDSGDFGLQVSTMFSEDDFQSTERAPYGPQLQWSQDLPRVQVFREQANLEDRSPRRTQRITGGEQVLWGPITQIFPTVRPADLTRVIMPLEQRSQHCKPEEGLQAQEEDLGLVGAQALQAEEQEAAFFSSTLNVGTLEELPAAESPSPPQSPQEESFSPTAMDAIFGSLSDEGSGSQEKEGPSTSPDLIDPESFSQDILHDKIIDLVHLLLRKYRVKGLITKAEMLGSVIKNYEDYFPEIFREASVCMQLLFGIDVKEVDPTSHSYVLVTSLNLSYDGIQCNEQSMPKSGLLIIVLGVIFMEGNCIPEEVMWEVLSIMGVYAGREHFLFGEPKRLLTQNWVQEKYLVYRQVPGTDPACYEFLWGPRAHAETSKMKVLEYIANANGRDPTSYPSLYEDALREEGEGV
Procedure: as §4, §5

MAGE-A1 = target: T9, MAGE-A1 (human, UniProt P43355 1-309); assay: as above
T9 construct: In lysates of transiently transfected HEK 293 cells; construct not described
T9 sequence: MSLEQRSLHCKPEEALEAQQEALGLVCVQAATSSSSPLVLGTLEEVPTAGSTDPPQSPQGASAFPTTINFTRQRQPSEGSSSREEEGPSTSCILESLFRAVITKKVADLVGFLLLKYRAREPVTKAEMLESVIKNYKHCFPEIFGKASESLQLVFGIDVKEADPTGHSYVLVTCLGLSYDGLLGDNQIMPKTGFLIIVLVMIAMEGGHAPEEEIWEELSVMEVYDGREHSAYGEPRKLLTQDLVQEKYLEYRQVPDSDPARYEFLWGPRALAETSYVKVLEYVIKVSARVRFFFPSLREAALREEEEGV
Procedure: as §4, §5

MAGE-A8 = target: T10, MAGE-A8 (human, UniProt P43361 1-318); assay: as above
T10 construct: In lysates of transiently transfected HEK 293 cells; construct not described
T10 sequence: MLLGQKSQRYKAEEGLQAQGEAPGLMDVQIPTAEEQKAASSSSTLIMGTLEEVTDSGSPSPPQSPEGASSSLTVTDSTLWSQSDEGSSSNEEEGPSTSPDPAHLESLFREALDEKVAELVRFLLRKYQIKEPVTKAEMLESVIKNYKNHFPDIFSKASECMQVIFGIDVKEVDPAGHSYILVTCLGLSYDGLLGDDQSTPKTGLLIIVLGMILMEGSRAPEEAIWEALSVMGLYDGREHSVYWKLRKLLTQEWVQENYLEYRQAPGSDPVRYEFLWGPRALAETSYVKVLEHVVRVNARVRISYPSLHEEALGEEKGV
Procedure: as §4, §5

MAGE-A10 = target: T11, MAGE-A10 (human, UniProt P43363 1-369); assay: as above
T11 construct: In lysates of transiently transfected HEK 293 cells; construct not described
Procedure: as §4, §5

MAGE-A4 = target: T12, MAGE-A4 (human, UniProt P43358 1-317); assay: as above
T12 construct: In lysates of transiently transfected HEK 293 cells; construct not described
T12 sequence: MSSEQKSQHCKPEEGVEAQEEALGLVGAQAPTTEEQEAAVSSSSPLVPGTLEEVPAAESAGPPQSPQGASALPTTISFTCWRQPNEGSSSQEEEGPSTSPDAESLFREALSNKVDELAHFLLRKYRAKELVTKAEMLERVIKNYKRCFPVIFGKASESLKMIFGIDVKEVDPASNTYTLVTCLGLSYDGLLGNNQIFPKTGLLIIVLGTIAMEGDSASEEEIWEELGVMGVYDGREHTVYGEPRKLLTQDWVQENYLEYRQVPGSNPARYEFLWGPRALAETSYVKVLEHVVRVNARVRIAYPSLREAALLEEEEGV
Procedure: as §4, §5

[6] = target: T1, peptide MA3#2 conjugated to KLH; assay: ELISA, clone culture supernatant on coated antigen, GAM IgG-HRP, OD 405 nm
Procedure: as §1, §2, §3

[7] = target: T13, full-length recombinant MAGE-A3 protein (human, UniProt P43357 1-314); assay: ELISA, biotinylated mAb 23D2 on 0.1 µg/well recombinant MAGE-A3, OD 405 nm
T13 construct: Full-length recombinant protein (made in baculovirus or E. coli, GSK); Also used here for endogenous MAGE-A3 in GERL cell lysate and for summary statements on MAGE-A3; also called recMA3; MA3
Procedure: An ELISA against MAGE-A3 was then performed using dilutions of biotinylated mAb 23D2 ([…], 0.1, 0.15, 0.2, 0.25 and 0.3 μg/50 μl) to determine useful conditions of use of the biotinylated mAb 23D2.

T2 sequence (P43356 whole entry): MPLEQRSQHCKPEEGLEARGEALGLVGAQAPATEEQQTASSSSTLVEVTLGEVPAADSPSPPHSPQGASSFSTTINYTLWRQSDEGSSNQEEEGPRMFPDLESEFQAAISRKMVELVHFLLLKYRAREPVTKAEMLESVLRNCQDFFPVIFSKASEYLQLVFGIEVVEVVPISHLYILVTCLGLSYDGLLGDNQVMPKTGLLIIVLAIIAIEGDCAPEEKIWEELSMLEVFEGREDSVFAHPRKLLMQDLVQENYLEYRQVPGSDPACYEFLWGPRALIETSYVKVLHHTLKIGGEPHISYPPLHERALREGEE
T5 sequence (P43365 whole entry): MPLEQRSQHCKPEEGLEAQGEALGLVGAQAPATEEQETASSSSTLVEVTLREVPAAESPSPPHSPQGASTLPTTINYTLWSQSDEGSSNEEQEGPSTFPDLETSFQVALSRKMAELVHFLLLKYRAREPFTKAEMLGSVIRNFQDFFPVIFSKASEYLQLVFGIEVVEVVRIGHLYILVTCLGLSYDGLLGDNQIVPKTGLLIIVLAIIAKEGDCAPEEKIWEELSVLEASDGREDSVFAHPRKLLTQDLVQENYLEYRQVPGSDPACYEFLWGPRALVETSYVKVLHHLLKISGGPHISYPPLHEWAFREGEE
T7 sequence (P43360 whole entry Y283N): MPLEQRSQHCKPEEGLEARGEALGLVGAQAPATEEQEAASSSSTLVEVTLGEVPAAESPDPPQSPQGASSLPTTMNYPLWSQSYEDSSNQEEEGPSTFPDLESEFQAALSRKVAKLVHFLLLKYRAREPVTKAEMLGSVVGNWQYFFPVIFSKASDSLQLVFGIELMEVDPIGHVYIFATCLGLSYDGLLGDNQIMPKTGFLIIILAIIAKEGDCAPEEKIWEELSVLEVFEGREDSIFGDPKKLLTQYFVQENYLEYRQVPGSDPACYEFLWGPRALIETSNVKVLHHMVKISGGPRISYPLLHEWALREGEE
T11 sequence (P43363 whole entry R166K/V234I): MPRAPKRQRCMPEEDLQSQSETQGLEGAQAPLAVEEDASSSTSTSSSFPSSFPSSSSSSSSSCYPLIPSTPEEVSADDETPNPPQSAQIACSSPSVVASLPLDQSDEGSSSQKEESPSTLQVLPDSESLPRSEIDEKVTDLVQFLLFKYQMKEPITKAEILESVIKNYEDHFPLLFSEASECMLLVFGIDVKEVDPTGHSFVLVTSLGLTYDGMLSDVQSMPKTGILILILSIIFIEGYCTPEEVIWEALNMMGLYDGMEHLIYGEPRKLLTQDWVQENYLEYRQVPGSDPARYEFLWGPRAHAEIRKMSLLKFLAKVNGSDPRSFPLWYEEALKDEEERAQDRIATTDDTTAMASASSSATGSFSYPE
T13 sequence (P43357 whole entry): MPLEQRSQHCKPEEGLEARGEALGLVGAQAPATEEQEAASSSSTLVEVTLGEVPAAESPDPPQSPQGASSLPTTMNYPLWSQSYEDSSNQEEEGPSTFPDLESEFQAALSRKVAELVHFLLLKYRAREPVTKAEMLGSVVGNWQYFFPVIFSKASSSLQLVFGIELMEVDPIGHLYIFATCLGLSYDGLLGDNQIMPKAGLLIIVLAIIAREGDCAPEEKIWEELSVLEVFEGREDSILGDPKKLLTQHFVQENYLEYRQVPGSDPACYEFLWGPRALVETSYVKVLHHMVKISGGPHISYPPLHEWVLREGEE

B1: mAb 1B1 (antibody, IgG1, V domains shown)
VH: DVQLQESGPGLVKPSQSLSLTCTVTGYSITSDYVWNWIRQFPGNKLEWMGYIGHSGRTSYNPSLKSRISITRDTSKNQFFLQLNSVTSEDTATYYCARGGNNGFAYWGQGTLVTVSA
VL: DIVMTQSPSSLTVTAGEKVTMSCKSSQSLLNSGNQKNYLTWYQQKPGQPPKLLIYWTSTRDSGVPDRFTGSGSGTDFTLTISSVQAEDLAVYYCQNDYSYPPTFGGGTKLEIKR
notes: Tested as hybridoma supernatant; also called clone 1B1; hybridoma 1B1
B1: no binding [1]; no binding [2]; binds [3]. B1: no binding [4]; no binding [5]; no binding (tested: Between 25 and 85 µg of lysates) (MAGE-A9). B1: binds (MAGE-A6); no binding (tested: Between 25 and 85 µg of lysates) (MAGE-A11); no binding (tested: Between 25 and 85 µg of lysates) (MAGE-A1). B1: no binding (tested: Between 25 and 85 µg of lysates) (MAGE-A8); no binding (tested: Between 25 and 85 µg of lysates) (MAGE-A10); no binding (tested: Between 25 and 85 µg of lysates) (MAGE-A4).

B2: mAb 16G7 (antibody, IgG1, V domains shown)
VH: EVMVVESGGGLVKPGGSLKLSCAASGFTFRTNAMSWVRQTPEKRLEWVATITSGGGSTYYPVSVKGRFTISRDNAKNTLYLQMSSLRSEDTAIYYCVRQDYFDYWGQGTFVIVSS
VL: QAVVTQESALTTSPGETVTLTCRSSTGAVTSTNYANWVQEKPDHLFTGLIGGTNNRAPGVPARFSGSLIGDKAALTITGAQTEDEAIYFCALWYSNHWVFGGGTKLTVL
notes: also called clone 16G7; hybridoma 16G7
B2: no binding [6]; no binding [2]; binds [3]. B2: no binding [4]; no binding [5]; no binding (tested: Between 25 and 85 µg of lysates) (MAGE-A9). B2: binds (MAGE-A6); no binding (tested: Between 25 and 85 µg of lysates) (MAGE-A11); no binding (tested: Between 25 and 85 µg of lysates) (MAGE-A1). B2: no binding (tested: Between 25 and 85 µg of lysates) (MAGE-A8); no binding (tested: Between 25 and 85 µg of lysates) (MAGE-A10); no binding (tested: Between 25 and 85 µg of lysates) (MAGE-A4).

B3: mAb 23D2 (antibody, IgG2a, V domains shown)
VH: DVKLVESGGGLVKPGGSLKVSCVASGFTFSSYTMSWVRQTPEKRLEWVATITSGGGSSYYPDSVKGRFTISRDNAKNTLYLQITSLKSEDTAMYYCTSGGGVLLRLPLFAYWGQGTTLTVSS
VL: QAVVTQESALTTSPGETVTLTCRSSTGAVTASNYANWVQEKPDHSFTGLIGGINNRAPGVPARFSGSLIGDKAALTITGAQTEDEAIYFCALWYNNHWVFGGGTKLTVL
modifications: In the FIG. 8 ELISA and the FIG. 9 competition assay the antibody was biotinylated; the sites are not stated and the letters do not carry them.
notes: also called clone 23D2; hybridoma 23D2
B3: no binding [6]; no binding [2]; binds [3]. The binding result [4] was “no binding”, the binding result [5] was “no binding” and the “EC50 (read off the curve)” value [7] was ~0.006 µg/50 µl. B3: no binding (tested: Between 25 and 85 µg of lysates) (MAGE-A9); binds (MAGE-A6); no binding (tested: Between 25 and 85 µg of lysates) (MAGE-A11). B3: no binding (tested: Between 25 and 85 µg of lysates) (MAGE-A1); no binding (tested: Between 25 and 85 µg of lysates) (MAGE-A8); no binding (tested: Between 25 and 85 µg of lysates) (MAGE-A10). B3: no binding (tested: Between 25 and 85 µg of lysates) (MAGE-A4).
